Source: article PMC9580340 (Science (New York, N.y.), 2022)

B1: A19-46.1 IgG1 (antibody, V domains shown)
VH: QVQLVESGGGVVQPGRSLRLSCAASGFTLSSYGMHWVRQAPGKGLEWVAVISYDGSNKYYVDSVKGRFTISRDNSKNTLYLQMNSLRAEDTAVYYCARGWAYWELLPDYYYGMDVWGQGTTVTVSS
VL: QTVVTQEPSFSVSPGGTVTLTCGLSSGSVSTAYFPSWYQQTPGQAPRTLIYGTNTRSSGVPDRFSGSILGNKAALTITGAQADDESDYYCVLYMGRGIVVFGGGTKLTVL
B2: Fab A19-46.1 (Fab, V domains shown)
VH: QVQLVESGGGVVQPGRSLRLSCAASGFTLSSYGMHWVRQAPGKGLEWVAVISYDGSNKYYVDSVKGRFTISRDNSKNTLYLQMNSLRAEDTAVYYCARGWAYWELLPDYYYGMDVWGQGTTVTVSS
VL: QTVVTQEPSFSVSPGGTVTLTCGLSSGSVSTAYFPSWYQQTPGQAPRTLIYGTNTRSSGVPDRFSGSILGNKAALTITGAQADDESDYYCVLYMGRGIVVFGGGTKLTVL
notes: 17-residue-long CDR H3
B3: A19-61.1 IgG1 (antibody, V domains shown)
VH: QVQLVESGGGVVQPGRSLRLSCAASGFTFSSYAFHWVRQAPGKGLEWVAVISYDGSNQYYADSVKGRFTISRDNSKNTLYLQMNSLRADDTAVYYCARDLAIAVAGTWHYYNGMDVWGQGTTVTVSS
VL: DIQMTQSPSSVSASVGDRVIITCRASQGISSWLAWYQQKPGKAPKVLIYDASSLQSGVPSRFSGSGYGTDFTLTISSLQPEDSATYYCQQAKSFPITFGQGTRLEIK

Experiments:
[1] = target: T1, SARS-CoV-2 D614G spike, full length, on transfected 293T cells (SARS-CoV-2, QHD43416.1 (Wuhan-Hu-1) …, UniProt A0A6H1PJZ3, D614G); test: flow cytometry on cells; details: one partner purified
T1 construct: also called ancestral D614G spike

[2] = target: SARS-CoV-2 B.1.1.529 (Omicron; BA.1) spike, full length, on transfected 293T cells (SARS-CoV-2 B.1.1.529 (Omicron BA.1), A67V | H69del | V70del | T95I | G142D | V143del | Y144del | Y145del | N211del | …); test: flow cytometry on cells; details: one partner purified
[3] = target: T2, SARS-CoV-2 B.1.1.529 (Omicron) S2P spike, trimeric ectodomain (cryo-EM) (SARS-CoV-2 B.1.1.529 (Omicron BA.1), …, A67V | H69del | V70del | T95I | G142D | V143del | Y144del | Y145del | N211del | …); test: cryo-EM structure; details: both partners purified
T2 construct: also called B.1.1.529 spike; B.1.1.529 S2P spike

| Binder | binding result [1] | binding as percent of D614G [2] | stoichiometry N [3] [Fabs per spike trimer] |
| --- | --- | --- | --- |
| B1 | binds | 47 % of D614G |  |
| B2 |  |  | 2 |
| B3 | binds |  |  |
